Results taken from patent US20250283871A1, “COMPOSITIONS AND METHODS FOR MODULATING THE INTERACTION BETWEEN SS18-SSX FUSION ONCOPROTEIN AND NUCLEOSOMES” (Dana-Farber Cancer Institute, Inc., priority 2020, published 2025).

B1: WT RING1B: wild-type RING1B re-expressed in RING1A/1B-dKO cells (protein, UniProt Q99496 2-336, looked up)
E3 ubiquitin-protein ligase …: SQAVQTNGTQPLSKTWELSLYELQRTPQEAITDGLEIVVSPRSLHSELMCPICLDMLKNTMTTKECLHRFCADCIITALRSGNKECPTCRKKLVSKRSLRPDPNFDALISKIYPSRDEYEAHQERVLARINKHNNQQALSHSIEEGLKIQAMNRLQRGKKQQIENGSGAEDNGDSSHCSNASTHSNQEAGPSNKRTKTSDDSGLELDNNNAAMAIDPVMDGASEIELVFRPHPTLMEKDDSAQTRYIKTSGNATVDHLSKYLAVRLALEELRSKGESNQMNLDTASEKQYTIYIATASGQFTVLNGSFSLELVSEKYWKVNKPMELYYAPTKEHK
B2: R91E: ligase-deficient RING1 point mutant, E2 binding interface (protein, UniProt Q99496 2-336, looked up, variant R91E)
E3 ubiquitin-protein ligase …: SQAVQTNGTQPLSKTWELSLYELQRTPQEAITDGLEIVVSPRSLHSELMCPICLDMLKNTMTTKECLHRFCADCIITALRSGNKECPTCEKKLVSKRSLRPDPNFDALISKIYPSRDEYEAHQERVLARINKHNNQQALSHSIEEGLKIQAMNRLQRGKKQQIENGSGAEDNGDSSHCSNASTHSNQEAGPSNKRTKTSDDSGLELDNNNAAMAIDPVMDGASEIELVFRPHPTLMEKDDSAQTRYIKTSGNATVDHLSKYLAVRLALEELRSKGESNQMNLDTASEKQYTIYIATASGQFTVLNGSFSLELVSEKYWKVNKPMELYYAPTKEHK
B3: I53A/D56K: RING1B point mutant disrupting the E2 binding interface (protein, UniProt Q99496 2-336, looked up, variant I53A D56K)
E3 ubiquitin-protein ligase …: SQAVQTNGTQPLSKTWELSLYELQRTPQEAITDGLEIVVSPRSLHSELMCPACLKMLKNTMTTKECLHRFCADCIITALRSGNKECPTCRKKLVSKRSLRPDPNFDALISKIYPSRDEYEAHQERVLARINKHNNQQALSHSIEEGLKIQAMNRLQRGKKQQIENGSGAEDNGDSSHCSNASTHSNQEAGPSNKRTKTSDDSGLELDNNNAAMAIDPVMDGASEIELVFRPHPTLMEKDDSAQTRYIKTSGNATVDHLSKYLAVRLALEELRSKGESNQMNLDTASEKQYTIYIATASGQFTVLNGSFSLELVSEKYWKVNKPMELYYAPTKEHK
B4: I53A: widely-used RING1B I53A mutant (protein, UniProt Q99496 2-336, looked up, variant I53A)
E3 ubiquitin-protein ligase …: SQAVQTNGTQPLSKTWELSLYELQRTPQEAITDGLEIVVSPRSLHSELMCPACLDMLKNTMTTKECLHRFCADCIITALRSGNKECPTCRKKLVSKRSLRPDPNFDALISKIYPSRDEYEAHQERVLARINKHNNQQALSHSIEEGLKIQAMNRLQRGKKQQIENGSGAEDNGDSSHCSNASTHSNQEAGPSNKRTKTSDDSGLELDNNNAAMAIDPVMDGASEIELVFRPHPTLMEKDDSAQTRYIKTSGNATVDHLSKYLAVRLALEELRSKGESNQMNLDTASEKQYTIYIATASGQFTVLNGSFSLELVSEKYWKVNKPMELYYAPTKEHK
B5: BCL7B: BAF complex subunit quantified in the IP MS (protein, UniProt Q9BQE9 1-202, looked up)
B-cell CLL/lymphoma 7 protein …: MSGRSVRAETRSRAKDDIKKVMAAIEKVRKWEKKWVTVGDTSLRIFKWVPVTDSKEKEKSKSNSSAAREPNGFPSDASANSSLLLEFQDENSNQSSVSDVYQLKVDSSTNSSPSPQQSESLSPAHTSDFRTDDSQPPTLGQEILEEPSLPSSEVADEPPTLTKEEPVPLETQVVEEEEDSGAPPLKRFCVDQPTVPQTASES

How the values were obtained:
Type in all cases: cell-based, human
[1] = test system: Barr bodies (inactive X); experiment: Immunofluorescence, Barr body localization; settings: RING1A/1B-dKO HEK-293T cells
Description: Immunofluorescent images were obtained as previously described (Daou et al. (2011) Pro. Nat. Acad. Sci. U.S.A 108:2747-2752). Following lentiviral infection and/or drug treatment, cells were prepared by fixation in 3% PFA-PBS and then were permeabilized with PBS 0.1% NP40. Following incubation with primary antibodies, the Anti-rabbit Alexa Fluor® 594 and Anti-mouse Alexa Fluor® 488 (Life Technologies) secondary antibodies were used for visualization. Staining with 4′,6-diamidino-2-phenylindole (DAPI) was used to visualize nuclei. Images were acquired using Zeiss Axio Imager Z2 microscope and images were processed using ImageJ program (NIH).

[2] = test system: H2A K119Ub; experiment: Immunoblot of H2A K119Ub deposition in RING1A/B dKO 293T cells rescued with RING1B variants; settings: RING1A/1B-dKO HEK-293T cells
Description: Detection of proteins by western blot (WB) analysis was achieved using standard protocols with primary antibodies (Table 4). […] The membranes were then blocked in 5% milk and incubated with primary antibody in PBST over night at 4° C. Following incubation with the primary antibody, membranes were washed 3× in PBST, incubated with IRDye® (LI-COR Biosciences) secondary antibodies for 3 hours, washed 3× in PBST with a final PBS wash, and then visualized by the LI-COR Odyssey® Imaging System (LI-COR Biosciences).

[3] = test system: BAF complex components; experiment: anti-SMARCA4 (BRG1) IP mass spectrometry (Tables 7A-7C); settings: Aska-SS cells -/+ shSSX
Description: Peptide abundance normalized to SMARCA4 abundance. […] SMARCC1, SS18, GFP, SMARCB1, and TBP levels are shown. […] T indicates 0-40 min timecourse; n=3 experimental replicates at each time point; error bars represent standard deviation.
Nuclear extracts were quantified by Bradford assay and 150-200 μg of protein was incubated with 2 μg of antibody in Buffer EB300 (50 mM Tris pH 7.5, 0.1% NP-40, 1 mM EDTA, 1 mM MgCl2, […] with protease inhibitor (Roche, C756U27), 1 mM DTT and 1 mM phenylmethylsulfonyl fluoride (PMSF)) overnight at 4° C. Each sample was then incubated with Protein G Dynabeads® (Thermo Scientific) for 2-3 hours. Beads were washed three times with Buffer EB300 followed by elution with 20 μL of elution buffer (NuPage™ LDS buffer (2×) (Life Technologies) containing 100 mM DTT and water).

| Molecule | SS18-SSX / SSX localization after RING1B rescue [1] | H2A ubiquitination [2] | Aska (shControl)/Aska (shSS18-SSX) LFQ Intensity (Norm to SMARCA4 Rep 1) ([3]; Rep 1) | Aska (shControl)/Aska (shSS18-SSX) LFQ Intensity (Norm to SMARCA4 Rep 2) ([3]; Rep 2) |
| --- | --- | --- | --- | --- |
| B1 | able to completely rescue SSX localization | – | – | – |
| B2 | unable to recruit SS18-SSX | – | – | – |
| B3 | unable to recruit SS18-SSX | – | – | – |
| B4 | little effect on SSX targeting | only partially attenuated H2A ubiquitination | – | – |
| B5 | – | – | 1.339 | 1.126 |
